Laboratory results: patent publication USRE41461E1, “Purification, composition and specificity of Heparinase I, II, and III from Flavobacterium heparinum” (Massachusetts Institute of Technology, priority 1992, dated 2010)

Experiments:
[1] = Temperature stability of lyase activity; format: physicochemical; settings: 30° C., protein 650 ng/ml
Protocol: Lyase assay stock solutions were prepared in the appropriate buffer and placed in water baths at the following temperatures: heparin lyase I at 30° C., heparin lyase II at 35° C., and heparin lyase III at both 35° and 40° C. […]

[2] = Heparin lyase activity: effect of divalent metals and added salt, substrate specificity (each lyase on its substrates); format: biochemical
Protocol: The spectrophotometer was adjusted to the optimum temperature of the particular lyase being assayed. A 700 μl quartz microcuvette containing 400 μg of substrate in 50 mM sodium phosphate buffer (containing 100 mM sodium chloride for heparin lyase I) was thermally equilibrated. A measured quantity of lyase was added, bringing the final volume to 400 μl and the cuvette was gently mixed. The microcuvette was then immediately returned to the spectrophotometer and the change of absorbance at 232 nm was measured at 10 seconds intervals over 3 min. The activity was measured from the change of absorbance/unit time using an extinction coefficient of 3800 M^−1 for products. The specific activity was then calculated by dividing the micromoles of product produced per minute by the milligrams of protein in the cuvette. The molecular weights used for heparin, heparan sulfate, and the chondroitin sulfates were 14,000, 20,000 and 25,000, respectively, Rice, K. G., and Linhardt, R. J. (1989) Carbohydr. Res. 190, 219-233. Protein concentration was measured by the Bradford assay, Bradford, M. M. (1976) Anal. Biochem. 72, 248-254, based on a bovine serum albumin standard curve.
BTP-HCl buffer (50 mM) was prepared containing either 10 mM calcium chloride, 10 μM or 1 mM copper (II) chloride, 10 μM and 1 mM mercury (II) chloride, and 1 mM zinc (II) chloride. Each solution was adjusted to the optimum pH for the lyase being tested, and the activity of the heparin lyases was measured in the presence and absence of divalent metals.
The salt concentration for optimum activity was investigated. Sodium chloride, potassium chloride, and sodium and potassium acetate were used to differentiate between ionic strength and specific ion affects. Added salt concentrations varied between 0 and 500 mM and were prepared in 50 mM sodium phosphate buffer after which the pH was adjusted to each enzyme's optimum and the heparin lyase activity was measured.
Each heparin lyase was added to a solution of complex polysaccharides (1 mg/ml) under optimized assay conditions, and the reaction was monitored at 232 nm for 30 min. The amount of purified lyase used was sufficient for complete depolymerization of heparin or heparan sulfate substrates within 30 min. The initial rate of depolymerization of each polysaccharide was measured, the reaction was then continued for 24 h, and the final level of polysaccharide depolymerization was assessed by measuring the final absorbance at 232 nm and expressed as percent activity.

[3] = Isoelectric focusing on agarose gel; format: physicochemical; settings: agarose IEF
Protocol: IEF gel electrophoresis was run on pre-cast agarose gels (85×100 mm). Two electrode wicks were wetted with 1M phosphoric acid (anolyte) and 1M sodium hydroxide (catholyte). Electrophoresis was at 5 watts for 5 min, then at 10 watts for 1 h until the voltage was constant at 1200 V. The gel was immediately fixed in 15% aqueous trichloroacetic acid, blotted and rinsed with water, dried overnight, stained by using Coomassie G-250, and destained.

[4] = Heparin lyase activity assay (change of absorbance at 232 nm), heparan sulfate as substrate; format: biochemical; settings: final level of depolymerization, 24 h
Protocol: (§1) The spectrophotometer was adjusted to the optimum temperature of the particular lyase being assayed. […] A measured quantity of lyase was added, bringing the final volume to 400 μl and the cuvette was gently mixed. The microcuvette was then immediately returned to the spectrophotometer and the change of absorbance at 232 nm was measured at 10 seconds intervals over 3 min. […] The specific activity was then calculated by dividing the micromoles of product produced per minute by the milligrams of protein in the cuvette. […] G., and Linhardt, R. J. (1989) Carbohydr. Res. 190, 219-233. Protein concentration was measured by the Bradford assay, Bradford, M. M. (1976) Anal. Biochem. 72, 248-254, based on a bovine serum albumin standard curve. […] The activities of each lyase (I acting on heparin, II acting on both heparin and heparan sulfate, and III acting on heparan sulfate) were then determined at different pH values. The buffer giving optimum activity for each heparin lyase was selected by testing buffers with buffering capacity near the pH optima calculated in the previous experiments. These buffers were: Tris-HCl, sodium phosphate, HEPES, MOPS, TES, and BTP-CHl. […] The heparin lyase assay solutions were made by diluting enzyme in 50 mM sodium phosphate buffer adjusted to the appropriate pH as previously described. Heparin lyase activity was determined in each buffer. Activity was assayed both immediately after addition to each buffer and following incubation for 24 h at 37° C. The salt concentration for optimum activity was investigated. Sodium chloride, potassium chloride, and sodium and potassium acetate were used to differentiate between ionic strength and specific ion affects. […] The temperature was adjusted in a temperature-regulated spectrophotometer and equilibrated for 10 min before the assay was started. Michaelis-Menten constants were determined using the optimized conditions. The final absorbance value for total depolymerization was divided by 20 to find a value that represented 5% reaction completion. The purified lyase preparations were diluted so that 5% of total depolymerization would be reached only at the end of a 3-min assay. The reaction velocities at specific molar concentrations for each lyase and their substrates were used for kinetic analysis using EZ-FIT hyperbolic curve-fitting program of […]. (1988) Anal. Biochem. 174, 437-447). Substrate solutions were prepared from 50 mg/ml heparin and 40 mg/ml for heparan sulfate stock solutions. […] The amount of purified lyase used was sufficient for complete depolymerization of heparin or heparan sulfate substrates within 30 min. The initial rate of depolymerization of each polysaccharide was measured, the reaction was then continued for 24 h, and the final level of polysaccharide depolymerization was assessed by measuring the final absorbance at 232 nm and expressed as percent activity.

[5] = cited from earlier work
[6] = Activity remaining after incubation in buffers for 24 h at 37° C.; format: physicochemical; settings: each of six buffers
Protocol: The buffer giving optimum activity for each heparin lyase was selected by testing buffers with buffering capacity near the pH optima calculated in the previous experiments. These buffers were: Tris-HCl, sodium phosphate, HEPES, MOPS, TES, and BTP-CHl. Each buffer was prepared at 50 mM, and its pH was adjusted with hydrochloric acid or sodium hydroxide to 6.9 for heparin lyase II acting on heparin, 7.15 for heparin lyase I, 7.3 for heparin lyase II acting on heparan sulfate, and 7.6 for heparin lyase III. The heparin lyase assay solutions were made by diluting enzyme in 50 mM sodium phosphate buffer adjusted to the appropriate pH as previously described. Heparin lyase activity was determined in each buffer. Activity was assayed both immediately after addition to each buffer and following incubation for 24 h at 37° C.

[7] = Heparin lyase activity assay (change of absorbance at 232 nm), heparin as substrate; format: biochemical, porcine
Protocol: as §1

[8] = Stability toward storage, freeze thawing and lyophilization; format: physicochemical; settings: for activity retained: absence of excipient
Protocol: […] […] These lyase solutions were then divided into 3 equal aliquots, and one of each was subjected to either freeze thawing, lyophilization, or retained as a control in an ice bath. The activities of heparin lyases I-III were determined in the presence and absence of excipients after: 1) brief storage at 4° C.; 2) freezing at −70° C. and thawing; and 3) −70° C. freezing, lyophilization, and reconstituting with an equal volume of cold water.

B1: Heparin lyase I: heparin lyase I (heparinase, EC 4.2.2.7) purified to homogeneity from Flavobacterium heparinum (protein, UniProt Q05819 22-384, looked up)
Heparin lyase I: QQKKSGNIPYRVNVQADSAKQKAIIDNKWVAVGINKPYALQYDDKLRFNGKPSYRFELKAEDNSLEGYAAGETKGRTELSYSYATTNDFKKFPPSVYQNAQKLKTVYHYGKGICEQGSSRSYTFSVYIPSSFPDNATTIFAQWHGAPSRTLVATPEGEIKTLSIEEFLALYDRMIFKKNIAHDKVEKKDKDGKITYVAGKPNGWKVEQGGYPTLAFGFSKGYFYIKANSDRQWLTDKADRNNANPENSEVMKPYSSEYKTSTIAYKMPFAQFPKDCWITFDVAIDWTKYGKEANTILKPGKLDVMMTYTKNKKPQKAHIVNQQEILIGRNDDDGYYFKFGIYRVGNSTVPVTYNLSGYSETAR
[1]
  time in which 80% of activity was lost: 5 h
[2]
  substrates acted on: act on both heparin and heparan sulfate
[2]; 10 μM mercury (II) chloride
  effect of mercury on activity: markedly reduced
[2]; 1 mM copper (II) chloride
  effect of copper on activity: markedly reduced
[2]; 1 mM mercury (II) chloride
  effect of mercury on activity: markedly reduced
[2]; 1 mM zinc (II) chloride
  effect of zinc on activity: slightly reduced
[2]; 10 mM calcium chloride, 50 mM BTP-HCl
  effect of calcium on activity (increase): 30%
[2]; increasing salt concentration, 0-500 mM
  effect of added salt on activity: increased activity
[3]
  pI (isoelectric point): 9.1-9.2
[4]
  average number of sites acted at in the heparan sulfate polymer: 5 sites
[5]; Yang et al. (1985), Linker and co-workers, assay times up to 6 h
  pH optimum (reported): 6.5
[5]; literature
  Vmax (reported): 19.7 μmol/min/mg protein
[6]
  activity after incubation, % of initial value: 1-20%
[7]; 0-500 mM salt in 50 mM sodium phosphate buffer
  added salt concentration (ionic strength) for optimum activity: 100 mM
[7]; final GPC-HPLC purification step, acting on heparin
  Unit/mg (specific activity): 130 Unit/mg
[7]; final level of depolymerization, 24 h
  average number of sites acted at in the heparin polymer: 7 sites
[7]; heparin, 50 mM buffer at optimum pH
  initial activity in six buffers (Tris-HCl, sodium phosphate, HEPES, MOPS, TES, BTP-HCl): reduced activity in MOPS, TES, and HEPES
[7]; heparin, 50 mM sodium phosphate at optimum pH, 15-55° C.
  temperature for maximum activity: 35 °C
[7]; heparin, I: 30° C., pH 7.15, 100 mM sodium chloride, II: 35° C., pH 7.3, value ± standard error, read-out: Km(app)
  Km: 17.8 ± 1.5 µM
[7]; heparin, optimized conditions, value ± standard error
  Vmax: 219 ± 3.48 μmol/min mg protein
[7]; on heparin
  pH optimum for activity: 7.15
[7]; purified lyase, toward heparin
  specific activity: 130 units/mg
[8]; after a single freeze-thawing
  activity retained: 45%
[8]; after freeze-drying
  activity retained: 25%
[8]; stored at 4° C.
  activity retained: 50%
[8]; addition of 2.0 mg/ml BSA
  retention of activity: greater than 85%
[8]; addition of 5% lactose
  retention of activity: 40-80%
